Source: patent publication US9587002B2, “Sequence of nucleotides and peptides GSE 24.2 of dyskerin, which can induce telomerase activity, method for obtaining same, therapeutic compositions and applications thereof” (CONSEJO SUPERIOR DE INVESTIGACIONES CIENTIFICAS, priority 2005, dated 2017)

Tests used:
JNK = assay: Activation of JNK by cisplatin in 293T cell lines (Western blot); assay type: cell-based, human; conditions: 293T cells stably expressing GSE 24.2 vs pLNCX; cisplatin 6 hours
Description: (§1) FIG. 2.—Cell viability and activation of the JNK and p38 death pathways in 293T cell lines: pLNCX and 24.2, treated with cisplatin. A) Cell viability. After seeding the 293T cells: expressing the empty vector (pLNCX) and GSE 24.2 (24.2) in 24-well plates, they were incubated with concentrations between 0-100 μg/ml of cisplatin. The cell viability was measured by means of the crystal violet technique after 72 hours of exposure to the drug. The data represent the mean of two experiments performed in quadruplicate. B) Activation kinetics. Subsequently, the activation of JNK and p38 was studied using antibodies that specifically recognise the active forms. As a load control, the levels of JNK-1 were detected.
(§2) The pLNCX24-2 plasmid containing GSE of the same name was transfected in a stable manner in the 293T cells and, as a control, the pLNCX empty vector was transfected. After verifying, by means of PCR, that the 24.2 cell line contained this insert (data not shown), the response to cisplatin was studied, creating a viability curve with this drug. […] JNK and p38 are MAPKs that are activated in response to genotoxic agents (Sanchez-Perez et al., 1998).
(§3) Western Blot and antibodies. 20 μg of protein were separated in SDS-polyacrylamide gels; subsequently, they were transferred to Immobilon-P membranes (Millipore) by humid transfer. […]

telomerase = telomerase (Homo sapiens, UniProt O14746); assay: Telomerase activity (TRAP) of 293T cell lines treated with cisplatin; assay type: cell-based; design: endogenous in cells; host or cells: 293T cells stably transfected with empty pLNCX or pLNCX 24.2; conditions: pre-treated 0.5 μg/ml 3 days, then 3 μg/ml cisplatin for 7 days
telomerase, sequence (O14746 whole entry): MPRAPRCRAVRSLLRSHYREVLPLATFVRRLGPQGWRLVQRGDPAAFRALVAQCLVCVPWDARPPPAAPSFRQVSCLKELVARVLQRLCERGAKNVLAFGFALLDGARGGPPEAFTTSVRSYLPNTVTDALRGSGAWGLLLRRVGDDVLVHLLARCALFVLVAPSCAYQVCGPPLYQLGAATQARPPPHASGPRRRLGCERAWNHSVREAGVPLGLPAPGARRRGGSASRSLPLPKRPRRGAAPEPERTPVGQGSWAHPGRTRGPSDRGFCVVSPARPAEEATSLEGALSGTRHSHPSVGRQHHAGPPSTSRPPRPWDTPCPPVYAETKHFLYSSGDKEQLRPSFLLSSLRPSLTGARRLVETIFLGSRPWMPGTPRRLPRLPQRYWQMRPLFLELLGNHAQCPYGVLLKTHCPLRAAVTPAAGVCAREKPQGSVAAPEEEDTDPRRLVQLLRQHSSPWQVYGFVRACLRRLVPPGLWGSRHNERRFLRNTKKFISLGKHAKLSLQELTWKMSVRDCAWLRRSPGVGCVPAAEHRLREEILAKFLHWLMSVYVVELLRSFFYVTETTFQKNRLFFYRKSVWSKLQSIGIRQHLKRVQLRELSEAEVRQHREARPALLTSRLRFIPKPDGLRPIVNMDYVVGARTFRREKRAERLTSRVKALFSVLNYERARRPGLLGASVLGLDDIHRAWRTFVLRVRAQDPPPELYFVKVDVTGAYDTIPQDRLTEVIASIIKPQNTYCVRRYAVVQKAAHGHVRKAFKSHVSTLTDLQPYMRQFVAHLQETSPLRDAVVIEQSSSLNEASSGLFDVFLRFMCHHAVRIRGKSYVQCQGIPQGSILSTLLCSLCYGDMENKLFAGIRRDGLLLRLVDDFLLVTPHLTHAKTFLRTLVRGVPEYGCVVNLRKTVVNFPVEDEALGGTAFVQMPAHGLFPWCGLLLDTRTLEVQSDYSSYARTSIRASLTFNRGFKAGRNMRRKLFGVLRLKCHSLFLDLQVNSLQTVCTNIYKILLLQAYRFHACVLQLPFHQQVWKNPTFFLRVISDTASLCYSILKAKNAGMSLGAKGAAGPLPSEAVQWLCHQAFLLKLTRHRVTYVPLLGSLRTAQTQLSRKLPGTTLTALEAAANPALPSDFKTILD
telomerase, sequence (O60832 2-514 partner limits assumed): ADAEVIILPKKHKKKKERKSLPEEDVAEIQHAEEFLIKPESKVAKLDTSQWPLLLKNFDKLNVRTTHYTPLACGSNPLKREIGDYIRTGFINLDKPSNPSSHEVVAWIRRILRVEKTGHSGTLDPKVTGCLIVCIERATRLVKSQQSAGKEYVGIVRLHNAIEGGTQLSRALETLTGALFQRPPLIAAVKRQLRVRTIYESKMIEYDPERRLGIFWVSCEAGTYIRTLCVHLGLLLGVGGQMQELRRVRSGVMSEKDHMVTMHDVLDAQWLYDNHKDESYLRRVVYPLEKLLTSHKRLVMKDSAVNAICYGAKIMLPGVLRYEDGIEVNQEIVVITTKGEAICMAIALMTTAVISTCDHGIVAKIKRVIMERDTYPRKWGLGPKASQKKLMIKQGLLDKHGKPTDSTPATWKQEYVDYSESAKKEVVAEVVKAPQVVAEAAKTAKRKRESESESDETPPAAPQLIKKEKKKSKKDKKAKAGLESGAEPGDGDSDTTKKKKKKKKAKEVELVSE
telomerase, sequence (Q9NPE3 whole entry partner): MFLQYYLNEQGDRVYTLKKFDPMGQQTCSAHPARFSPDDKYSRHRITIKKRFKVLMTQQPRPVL
telomerase, sequence (Q9NX24 whole entry partner): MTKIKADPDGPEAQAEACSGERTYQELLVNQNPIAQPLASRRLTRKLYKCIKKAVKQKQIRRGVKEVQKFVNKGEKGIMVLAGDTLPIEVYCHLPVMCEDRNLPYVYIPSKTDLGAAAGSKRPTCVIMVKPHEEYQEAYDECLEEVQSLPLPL
telomerase, sequence (Q9NY12 whole entry partner): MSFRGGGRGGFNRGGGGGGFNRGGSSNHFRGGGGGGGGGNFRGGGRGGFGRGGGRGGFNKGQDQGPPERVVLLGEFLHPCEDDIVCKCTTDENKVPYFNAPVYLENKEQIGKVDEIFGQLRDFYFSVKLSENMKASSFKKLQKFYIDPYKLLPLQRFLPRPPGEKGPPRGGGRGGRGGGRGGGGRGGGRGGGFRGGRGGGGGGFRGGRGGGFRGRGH
telomerase, sequence (Q9BUR4 whole entry partner): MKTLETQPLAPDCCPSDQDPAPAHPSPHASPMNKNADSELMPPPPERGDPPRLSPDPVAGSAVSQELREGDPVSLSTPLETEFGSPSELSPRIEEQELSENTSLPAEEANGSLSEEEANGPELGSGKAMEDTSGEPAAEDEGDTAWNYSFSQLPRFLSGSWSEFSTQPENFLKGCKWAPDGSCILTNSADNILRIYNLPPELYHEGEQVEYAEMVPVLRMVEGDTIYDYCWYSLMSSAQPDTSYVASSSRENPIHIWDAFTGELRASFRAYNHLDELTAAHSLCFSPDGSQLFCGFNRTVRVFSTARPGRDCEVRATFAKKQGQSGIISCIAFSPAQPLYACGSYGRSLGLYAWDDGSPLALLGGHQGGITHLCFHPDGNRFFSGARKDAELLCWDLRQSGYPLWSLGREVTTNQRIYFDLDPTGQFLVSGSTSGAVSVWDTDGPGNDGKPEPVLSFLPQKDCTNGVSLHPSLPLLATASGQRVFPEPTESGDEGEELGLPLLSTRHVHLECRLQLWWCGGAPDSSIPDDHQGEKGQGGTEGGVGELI
Description: FIG. 5.—Telomerase activity of the 293T cell lines: pLNCX and 24.2 following treatment with cisplatin. The cells were seeded in 60-mm plates, pre-treated with 0.5 μg/ml of cisplatin for 3 days and subsequently treated with cisplatin at a dose of 3 μg/ml […]. The telomerase activity was measured by means of the Intergen TRAPeze assay. The experiment was performed 3 times, with similar results.
To this end, an assay of telomerase activity was performed using the TRAP method with the pLNCX and pLNCX 24.2 cell lines (FIG. 5), pre-treating them for 3 days with 0.5 μg/ml of cisplatin; subsequently, they were treated with 3 μg/ml of cisplatin for 3 and 7 days. […]
Telomerase activity assay based on the TRAP method Wright et al., 1995). The telomerase activity was measured using the TRAPeze telomerase detection kit (Intergen) in accordance with the instruction manual. The protein concentration of each extract was quantified by means of the Bradford method using the BIORAD reagent and after performing a PCR in accordance with the manual instructions; polyacrylamide gel electrophoresis was performed with the reaction products under non-denaturing conditions and, subsequently, it was stained with Ethidium bromide for 30 minutes.

p38 = assay: Activation of p38 by cisplatin in 293T cell lines (Western blot); assay type: cell-based, human; conditions: 293T cells stably expressing GSE 24.2 vs pLNCX; cisplatin 6 hours
Description: as §1, §2, §3

B1: GSE 24.2: 165-pb cDNA fragment (nucleotides 268 to 433) of human dyskerin, SEQ ID NO1, encoding peptide SEQ ID NO2, expressed from pLNCX plasmid (nucleic acid, listed as Homo sapiens)
DNA: GGTTTCATTAATCTTGACAAGCCCTCTAACCCCTCTTCCCATGAGGTGGTAGCCTGGATTCGACGGATACTTCGGGTGGAGAAGACAGGGCACAGTGGTACTCTGGATCCCAAGGTGACTGGTTGTTTAATCGTGTGCATAGAACGAGCCACTCGCTTGGTGAAG
modifications: expressed from pLNCX plasmid; CDS (1)..(165) Sequence GSE 24.2
JNK
  dose of cisplatin required to activate JNK: a greater dose of cisplatin is required to activate both kinases
telomerase
  inhibition of telomerase activity by cisplatin in 24.2 cell line: no inhibition was observed
p38
  dose of cisplatin required to activate p38: a greater dose of cisplatin is required to activate both kinases
